Assay [1] concerns the target T1, FGF2 (UniProt P09038 143-288, limits assumed).
T1 construct: also called basic FGF; basic fibroblast growth factor
The experiment in a line: ELISA: FGF2 captured on heparin-coated plate, detected with HRP-goat-anti-human-IgG-Fc. Here is the method: (§1) Heparin (50 μg/ml) was bound to ELISA plates overnight and used to capture either VEGF or FGF2 (0.2 μg/ml) overnight, followed by 2% BSA for blocking.
(ELISA stands for enzyme-linked immunosorbent assay.)

The target of assay [2] is T2, VEGF (UniProt P15692-4 27-191, limits assumed).
T2 construct: also called vascular endothelial growth factor; VEGF-A
The experiment in a line: ELISA: VEGF captured on heparin-coated plate, detected with HRP-goat-anti-human-IgG-Fc. Here is the method:
as §1

Assay [3] concerns the target T3, Flag-FGF2 (UniProt P09038 135-288, limits assumed).
T3 construct: Soluble detection reagent in the bridging ELISA; also called Flag peptide linked to FGF2; not shown: Flag peptide
In words: bridging ELISA: VEGF captured on heparin-coated plate, antibody, then Flag-FGF2 and HRP-anti-Flag M2; signal needs binding to both VEGF and Flag-FGF2. As to the method: (§2) Heparin (50 μg/ml) was bound to an ELISA plate overnight and used to capture VEGF (0.2 μg/ml) overnight, followed by 2% BSA for blocking. […] In principle, this assay should only detect bispecific antibody, because any detectable antibody must bind both to the VEGF on the plate in order to be captured and to Flag-FGF2 in solution in order to be detected.

Assay [4] has as its target T1, FGF2. The experiment in a line: ELISA binding curves, FIG. 6B. As to the method: as §1
Assay [5] concerns the target T2, VEGF. In words: bridging ELISA: VEGF captured on heparin-coated plate, antibody, then Flag-FGF2 and HRP-anti-Flag M2; signal needs binding to both VEGF and Flag-FGF2. As to the method: as §2

T1 sequence (P09038 143-288 limits assumed): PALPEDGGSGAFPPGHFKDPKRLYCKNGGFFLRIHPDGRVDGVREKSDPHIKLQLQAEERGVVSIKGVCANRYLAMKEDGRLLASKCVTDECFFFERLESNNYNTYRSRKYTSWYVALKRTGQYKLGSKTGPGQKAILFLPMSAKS
T2 sequence (P15692 other isoform, or with tags, fused parts or gaps limits assumed): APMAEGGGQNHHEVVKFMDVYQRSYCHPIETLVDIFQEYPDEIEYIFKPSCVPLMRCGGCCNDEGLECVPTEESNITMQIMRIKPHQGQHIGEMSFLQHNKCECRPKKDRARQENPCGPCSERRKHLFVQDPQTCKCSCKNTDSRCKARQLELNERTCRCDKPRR
T3 sequence (P09038 135-288 limits assumed): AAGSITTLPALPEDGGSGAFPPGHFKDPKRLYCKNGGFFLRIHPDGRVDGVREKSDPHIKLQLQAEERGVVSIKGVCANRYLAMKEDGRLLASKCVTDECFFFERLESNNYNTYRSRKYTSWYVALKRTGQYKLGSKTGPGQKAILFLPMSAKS

B1: X-Ava/F2 (bispecific antibody, human IgG1, kappa)
light 1: DIQMTQSPSSLSASVGDRVTITCKASQSVSSDVGWYQQKPGKAPKLLIYSGSNRYSGVPSRFSGSGSGTDFTLTISSLQPEDFATYYCQQDYYSPWTFGQGTKVEIKRTVAAPSVFIFPPSDEQLKSGTASVVCLLNNFYPREAKVQWKVDNALQSGNSQESVTEQDSKDSTYSLSSTLTLSKADYEKHKVYACEVTHQGLSSPVTKSFNRGEC
heavy 1: not shown
light 2: DIQMTQSPSSLSASVGDRVTITCSASQDISNYLNWYQQKPGKAPKVLIYFTSSLHSGVPSRFSGSGSGTDFTLTISSLQPEDFATYYCQQYSTVPWTFGQGTKVEIKSSASTKGPSVFPLAPSSKSTSGGTAALGCLVKDYFPEPVTVSWNSGALTSGVHTFPAVLQSSGLYSLSSVVTVPSSSLGTQTYICNVNHKPSNTKVDKRVEPKSC
heavy 2: not shown
notes: also called bispecific antibody X-Ava/F2; X-Ava/F2 mAb
With B1, in assay [1], the “fold difference of EC50 against HuGAL-F2” value is ≤ 4 fold. Further, the “fold difference of EC50 against Avastin®” value in assay [2] is ≤ 2 fold.

B2: Avastin® (bevacizumab) (antibody, V domains shown)
VH: EVQLVESGGGLVQPGGSLRLSCAASGYTFTNYGMNWVRQAPGKGLEWVGWINTYTGEPTYAADFKRRFTFSLDTSKSTAYLQMNSLRAEDTAVYYCAKYPHYYGSSHWYFDVWGQGTLVTVSS
VL: DIQMTQSPSSLSASVGDRVTITCSASQDISNYLNWYQQKPGKAPKVLIYFTSSLHSGVPSRFSGSGSGTDFTLTISSLQPEDFATYYCQQYSTVPWTFGQGTKVEIKR
notes: Humanized anti-VEGF mAb, bivalent; also called Fab-12; F(ab)-12
Take B2: the binding result in assay [3] was “no binding (tested: 1 µg/ml)”.

B3: HuGAL-F2 (antibody, V domains shown)
VH: EVQLVQSGAEVKKPGSSVKVSCKASGYTFTNYVINWVRQAPGQGLEWIGYNDPYNDVSKYNEKFKGRATITSDKSTSTAYMELSSLRSEDTAVYYCAKEGGGKYVYAMDSWGQGTTVTVSS
VL: DIQMTQSPSSLSASVGDRVTITCKASQSVSSDVGWYQQKPGKAPKLLIYSGSNRYSGVPSRFSGSGSGTDFTLTISSLQPEDFATYYCQQDYYSPWTFGQGTKVEIK
notes: also called humanized GAL-F2
On to B3, for which the binding result in assay [4] is recorded as “binds”; in assay [5] it was “no binding (tested: 1 µg/ml)”.

The values are drawn from patent US20150110788A1 (GALAXY BIOTECH, published 2015).
